The target in experiment [1] is Biotinylated UBE3A HECT domain Q588E (METRIS) (human). Briefly: METRIS (mechanically transduced immunosorbent assay, rolling magnetic probes); biotinylated ubiquitin on streptavidin-coated ferromagnetic beads rolling on avidin-coated slides coated with biotinylated UBE3A HECT domain; rotating magnetic field 1 Hz for 5 s; read-out rolling parameter (dimensionless).
Experiment [2] concerns the target Biotinylated UBE3A HECT domain, wild type (METRIS) (human). The experiment is described as above.

As for “Biotinylated Cys-ubiquitin (ubiquitin variant with an N-terminal cysteine) on streptavidin-coated ferromagnetic particles (from UniProt P0CG48 1-76) (natural protein)”, the rolling parameter (ζ) in experiment [1] came to 0.247. Turning to “Biotinylated Cys-ubiquitin (ubiquitin variant with an N-terminal cysteine) on streptavidin-coated ferromagnetic particles (from UniProt P0CG48 1-76)”, the rolling parameter (ζ) in experiment [2] was determined as 0.178.

The record behind these values is PMC8635412.
